The target in test [1] is human C1q (human) (UniProt P02745). As to the kind of experiment: C1q ELISA: antibody coated in a dilution series, human C1q at 2 µg/mL, read at 450 nm; column C (midpoint, the C value of paragraph 430) of the printed 4-parameter fit; the axis reads Concentration with no unit, the unit of the coated antibody is from the legend paragraph 61; A 0.06, B 2.093, D 1.573, R^2 0.997.

For test [2] the target is unchanged. In words: C1q ELISA: antibody coated in a dilution series, human C1q at 2 µg/mL, read at 450 nm; fit of a flat curve; the unit is from the legend paragraph 61, none on the axis; A 0.06, B 41.873, D 0.09, R^2 0.735.
Test [3] has as its target human BDCA2 (full-length, cell surface) (human) (UniProt Q8WTT0). As to the kind of experiment: FACS dot plot (SSC-H against FL4-H) of the CHO cells with lower BDCA2 expression used in FIG 22B, stained with APC-labelled AC144; gate from about 2x10^1 to 10^4.
For test [4] the target is unchanged. In words: FACS dot plot (SSC-H against FL4-H) of the CHO cells EAG2456 T1F2 Clone 34.16.7 with high BDCA2 expression, stained with APC-labelled AC144; cells spread from about 10^1 to 10^4.

The term EC50 denotes the concentration that produces a half-maximal response.

Sequence of human BDCA2 (full-length, cell surface) (human) (Q8WTT0 whole entry): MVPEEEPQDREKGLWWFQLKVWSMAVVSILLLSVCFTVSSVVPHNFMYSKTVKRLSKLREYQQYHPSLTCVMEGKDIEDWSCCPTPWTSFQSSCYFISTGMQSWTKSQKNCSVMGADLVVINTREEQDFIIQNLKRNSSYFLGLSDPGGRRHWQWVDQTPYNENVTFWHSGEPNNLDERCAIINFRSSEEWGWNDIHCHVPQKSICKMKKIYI
Sequence of human C1q (human) (P02745 23-245 limits assumed, chain 1 of 3): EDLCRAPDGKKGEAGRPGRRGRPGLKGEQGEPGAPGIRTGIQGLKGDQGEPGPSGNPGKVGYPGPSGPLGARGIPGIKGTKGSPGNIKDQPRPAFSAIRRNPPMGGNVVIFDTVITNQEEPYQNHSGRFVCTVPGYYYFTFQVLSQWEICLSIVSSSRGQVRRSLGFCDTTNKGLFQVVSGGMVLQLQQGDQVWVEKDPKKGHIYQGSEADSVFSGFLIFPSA
Sequence of human C1q (human) (P02746 28-253 limits assumed, chain 2 of 3, further chain): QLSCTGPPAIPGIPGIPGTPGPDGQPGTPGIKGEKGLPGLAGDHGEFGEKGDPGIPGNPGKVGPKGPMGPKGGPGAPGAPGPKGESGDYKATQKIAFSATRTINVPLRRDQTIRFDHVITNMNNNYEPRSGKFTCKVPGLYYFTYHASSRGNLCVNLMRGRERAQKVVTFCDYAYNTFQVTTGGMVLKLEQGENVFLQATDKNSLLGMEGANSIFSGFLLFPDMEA
Sequence of human C1q (human) (P02747 29-245 limits assumed, chain 3 of 3, further chain): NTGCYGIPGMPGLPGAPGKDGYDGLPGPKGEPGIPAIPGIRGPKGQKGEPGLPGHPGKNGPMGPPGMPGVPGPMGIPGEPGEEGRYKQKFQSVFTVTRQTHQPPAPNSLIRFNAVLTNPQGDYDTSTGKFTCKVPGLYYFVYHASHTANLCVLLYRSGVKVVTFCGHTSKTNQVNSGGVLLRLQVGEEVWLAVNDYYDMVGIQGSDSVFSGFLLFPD
Sequence of 5C8 control (antibody) (heavy): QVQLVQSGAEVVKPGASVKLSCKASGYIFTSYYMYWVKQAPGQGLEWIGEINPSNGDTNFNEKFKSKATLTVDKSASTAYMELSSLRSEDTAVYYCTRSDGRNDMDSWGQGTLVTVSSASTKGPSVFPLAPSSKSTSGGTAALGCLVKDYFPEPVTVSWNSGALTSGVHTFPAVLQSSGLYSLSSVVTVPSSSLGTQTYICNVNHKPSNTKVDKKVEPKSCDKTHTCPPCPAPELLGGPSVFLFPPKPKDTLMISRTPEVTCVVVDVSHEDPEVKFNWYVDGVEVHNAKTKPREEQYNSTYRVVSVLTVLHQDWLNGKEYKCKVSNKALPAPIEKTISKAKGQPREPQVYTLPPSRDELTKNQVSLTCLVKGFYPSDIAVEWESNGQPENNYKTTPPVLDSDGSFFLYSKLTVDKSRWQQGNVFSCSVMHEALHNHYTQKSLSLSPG
Sequence of 5C8 control (antibody) (light): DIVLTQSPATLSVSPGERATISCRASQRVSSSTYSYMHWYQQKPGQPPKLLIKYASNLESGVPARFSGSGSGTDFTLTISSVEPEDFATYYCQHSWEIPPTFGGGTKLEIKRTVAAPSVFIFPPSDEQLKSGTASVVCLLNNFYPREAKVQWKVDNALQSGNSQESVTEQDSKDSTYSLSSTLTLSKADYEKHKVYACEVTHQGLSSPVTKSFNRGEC

In turn, 5C8 control (antibody) registered an EC50 in the test with human C1q (human) [1] of 2.21 mg/L.
As to 5c8 G4P/G1agly (antibody), in the test with human C1q (human) [2], the C of the 4-parameter fit (midpoint), curve flat came to 0.062 µg/mL.
On to “anti-human BDCA2 AC144 mAb (Miltenyi Biotec) (antibody)”, for which, in test [3], the frequency printed in the gate BDCA2 (percent of cells) was 87.8. Besides, in test [4], the frequency printed in the FL4-positive gate (percent of cells) stood at 99.4.

(Values after patent US20180362652A1.)
